Data on two molecules can be found in patent US20260042850A1.

Experiment [1] deals with cynomolgus monkey C-MET on stably transfected CHO-K1 cells (cynomolgus monkey). In words: flow cytometry, C-MET CHO-K1 cells. (In general: Flow cytometry measures light scatter and fluorescence of single cells or particles in a stream.)
Experiment [2] concerns the target human C-MET on stably transfected CHO-K1 cells (human) (UniProt P08581). The experiment is described as follows: flow cytometry, C-MET CHO-K1 cells.
Experiment [3] has as its target human C-MET His tagged, monomeric (human) (UniProt P08581). The experiment is described as follows: SPR Biacore, IgG captured, monomeric C-MET-His analyte. A general note: SPR reads the build-up and loss of mass on a sensor chip optically.
Experiment [4] addresses cynomolgus monkey C-MET His tag, monomeric (cynomolgus monkey). The experiment is described as above.
For experiment [5] the target is unchanged. The experiment is described as follows: SPR Biacore, monomeric cyno against monomeric human C-MET.

The term EC50 denotes the concentration at which the effect is half-maximal. One may read the Kd as a measure of binding affinity in units of concentration. As a reminder, the koff is the first-order rate constant of dissociation. For orientation: kon means the rate constant with which the complex forms.

Positions count from the first letter of the chain named.

human C-MET His tagged, monomeric (human), sequence (P08581 25-932): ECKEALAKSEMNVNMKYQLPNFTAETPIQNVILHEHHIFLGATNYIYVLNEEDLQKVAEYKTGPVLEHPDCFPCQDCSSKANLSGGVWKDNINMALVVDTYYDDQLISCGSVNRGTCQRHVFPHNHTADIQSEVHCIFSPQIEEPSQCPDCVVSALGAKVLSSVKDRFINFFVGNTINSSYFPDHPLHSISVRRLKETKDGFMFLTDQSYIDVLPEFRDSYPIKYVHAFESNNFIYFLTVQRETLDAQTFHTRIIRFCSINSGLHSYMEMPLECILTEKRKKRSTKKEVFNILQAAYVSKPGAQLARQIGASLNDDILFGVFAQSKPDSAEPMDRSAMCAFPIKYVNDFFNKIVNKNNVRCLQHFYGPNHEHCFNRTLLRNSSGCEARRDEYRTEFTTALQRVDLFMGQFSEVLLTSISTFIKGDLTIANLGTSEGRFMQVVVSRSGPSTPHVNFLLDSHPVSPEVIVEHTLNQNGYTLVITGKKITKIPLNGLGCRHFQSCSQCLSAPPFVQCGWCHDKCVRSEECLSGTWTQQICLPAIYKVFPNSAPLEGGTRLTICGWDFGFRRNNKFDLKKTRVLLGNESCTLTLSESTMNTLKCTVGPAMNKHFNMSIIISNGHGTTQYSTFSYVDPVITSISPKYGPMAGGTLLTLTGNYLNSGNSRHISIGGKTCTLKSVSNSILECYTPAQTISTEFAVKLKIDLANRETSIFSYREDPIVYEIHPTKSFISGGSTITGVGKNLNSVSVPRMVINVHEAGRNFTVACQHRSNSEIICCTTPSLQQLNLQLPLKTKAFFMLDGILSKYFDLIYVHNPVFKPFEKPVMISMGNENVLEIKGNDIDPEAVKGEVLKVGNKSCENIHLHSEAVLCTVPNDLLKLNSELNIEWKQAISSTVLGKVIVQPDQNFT
cynomolgus monkey C-MET His tag, monomeric (cynomolgus monkey), sequence (A0M8R7 25-932 S170N/I621T): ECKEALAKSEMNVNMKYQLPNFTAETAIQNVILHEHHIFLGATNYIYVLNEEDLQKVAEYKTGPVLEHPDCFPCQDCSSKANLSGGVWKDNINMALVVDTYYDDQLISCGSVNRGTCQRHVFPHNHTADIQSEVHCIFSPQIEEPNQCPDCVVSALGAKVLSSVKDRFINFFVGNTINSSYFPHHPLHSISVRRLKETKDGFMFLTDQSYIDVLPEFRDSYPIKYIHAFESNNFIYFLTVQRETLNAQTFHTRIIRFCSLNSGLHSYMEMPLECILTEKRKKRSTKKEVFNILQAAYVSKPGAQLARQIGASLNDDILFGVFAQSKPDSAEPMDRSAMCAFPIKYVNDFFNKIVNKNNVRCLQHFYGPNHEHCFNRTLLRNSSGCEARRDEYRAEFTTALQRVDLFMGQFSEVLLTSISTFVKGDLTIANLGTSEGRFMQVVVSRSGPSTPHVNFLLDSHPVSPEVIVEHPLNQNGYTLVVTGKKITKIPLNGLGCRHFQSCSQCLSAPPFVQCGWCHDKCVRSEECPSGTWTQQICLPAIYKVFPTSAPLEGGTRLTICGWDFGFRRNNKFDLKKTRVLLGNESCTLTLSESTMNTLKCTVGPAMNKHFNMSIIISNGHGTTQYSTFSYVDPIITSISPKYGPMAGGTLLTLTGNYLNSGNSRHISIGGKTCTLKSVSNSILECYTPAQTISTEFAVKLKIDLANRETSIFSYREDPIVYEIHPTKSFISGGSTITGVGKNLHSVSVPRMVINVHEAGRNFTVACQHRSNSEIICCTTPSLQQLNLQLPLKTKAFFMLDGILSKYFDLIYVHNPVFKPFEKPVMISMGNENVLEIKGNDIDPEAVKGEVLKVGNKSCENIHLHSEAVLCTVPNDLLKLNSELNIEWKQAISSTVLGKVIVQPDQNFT
human C-MET on stably transfected CHO-K1 cells (human), sequence (P08581 25-1390 limits assumed): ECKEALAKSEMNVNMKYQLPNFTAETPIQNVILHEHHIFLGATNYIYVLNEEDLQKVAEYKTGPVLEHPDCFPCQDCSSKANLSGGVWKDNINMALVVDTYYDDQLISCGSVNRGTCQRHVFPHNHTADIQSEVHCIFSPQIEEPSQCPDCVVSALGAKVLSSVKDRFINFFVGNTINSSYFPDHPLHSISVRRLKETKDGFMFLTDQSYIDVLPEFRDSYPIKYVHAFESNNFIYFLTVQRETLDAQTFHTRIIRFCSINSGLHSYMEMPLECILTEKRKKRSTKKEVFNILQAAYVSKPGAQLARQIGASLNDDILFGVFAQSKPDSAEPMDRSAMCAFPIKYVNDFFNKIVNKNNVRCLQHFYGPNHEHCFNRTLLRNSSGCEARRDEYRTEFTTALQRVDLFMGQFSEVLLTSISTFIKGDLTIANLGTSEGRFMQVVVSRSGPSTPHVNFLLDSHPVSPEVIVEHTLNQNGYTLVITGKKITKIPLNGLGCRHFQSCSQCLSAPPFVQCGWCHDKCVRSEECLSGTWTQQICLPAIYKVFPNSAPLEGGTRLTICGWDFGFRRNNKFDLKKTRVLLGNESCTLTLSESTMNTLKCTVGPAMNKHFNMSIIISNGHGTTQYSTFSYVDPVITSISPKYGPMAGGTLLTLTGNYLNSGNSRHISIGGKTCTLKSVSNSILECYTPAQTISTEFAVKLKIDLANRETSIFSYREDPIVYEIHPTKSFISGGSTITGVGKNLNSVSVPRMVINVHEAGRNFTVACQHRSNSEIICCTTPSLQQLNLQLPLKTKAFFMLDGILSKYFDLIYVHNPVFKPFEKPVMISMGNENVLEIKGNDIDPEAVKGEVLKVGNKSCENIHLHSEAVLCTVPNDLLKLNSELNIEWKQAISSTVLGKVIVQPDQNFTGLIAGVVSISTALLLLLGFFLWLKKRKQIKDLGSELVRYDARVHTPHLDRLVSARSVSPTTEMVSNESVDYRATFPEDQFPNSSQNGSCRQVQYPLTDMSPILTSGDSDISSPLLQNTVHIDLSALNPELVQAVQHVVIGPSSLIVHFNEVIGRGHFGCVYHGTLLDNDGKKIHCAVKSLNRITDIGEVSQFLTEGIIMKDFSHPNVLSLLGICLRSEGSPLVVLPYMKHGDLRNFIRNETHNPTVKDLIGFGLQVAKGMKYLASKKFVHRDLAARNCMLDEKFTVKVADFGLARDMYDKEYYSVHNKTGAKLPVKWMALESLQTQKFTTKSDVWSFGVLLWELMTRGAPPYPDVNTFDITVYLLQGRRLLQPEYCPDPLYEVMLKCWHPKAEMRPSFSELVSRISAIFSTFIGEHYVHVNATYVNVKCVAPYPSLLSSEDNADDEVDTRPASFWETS
cynomolgus monkey C-MET on stably transfected CHO-K1 cells (cynomolgus monkey), sequence (A0M8R7 25-1381 S170N/I621T limits assumed): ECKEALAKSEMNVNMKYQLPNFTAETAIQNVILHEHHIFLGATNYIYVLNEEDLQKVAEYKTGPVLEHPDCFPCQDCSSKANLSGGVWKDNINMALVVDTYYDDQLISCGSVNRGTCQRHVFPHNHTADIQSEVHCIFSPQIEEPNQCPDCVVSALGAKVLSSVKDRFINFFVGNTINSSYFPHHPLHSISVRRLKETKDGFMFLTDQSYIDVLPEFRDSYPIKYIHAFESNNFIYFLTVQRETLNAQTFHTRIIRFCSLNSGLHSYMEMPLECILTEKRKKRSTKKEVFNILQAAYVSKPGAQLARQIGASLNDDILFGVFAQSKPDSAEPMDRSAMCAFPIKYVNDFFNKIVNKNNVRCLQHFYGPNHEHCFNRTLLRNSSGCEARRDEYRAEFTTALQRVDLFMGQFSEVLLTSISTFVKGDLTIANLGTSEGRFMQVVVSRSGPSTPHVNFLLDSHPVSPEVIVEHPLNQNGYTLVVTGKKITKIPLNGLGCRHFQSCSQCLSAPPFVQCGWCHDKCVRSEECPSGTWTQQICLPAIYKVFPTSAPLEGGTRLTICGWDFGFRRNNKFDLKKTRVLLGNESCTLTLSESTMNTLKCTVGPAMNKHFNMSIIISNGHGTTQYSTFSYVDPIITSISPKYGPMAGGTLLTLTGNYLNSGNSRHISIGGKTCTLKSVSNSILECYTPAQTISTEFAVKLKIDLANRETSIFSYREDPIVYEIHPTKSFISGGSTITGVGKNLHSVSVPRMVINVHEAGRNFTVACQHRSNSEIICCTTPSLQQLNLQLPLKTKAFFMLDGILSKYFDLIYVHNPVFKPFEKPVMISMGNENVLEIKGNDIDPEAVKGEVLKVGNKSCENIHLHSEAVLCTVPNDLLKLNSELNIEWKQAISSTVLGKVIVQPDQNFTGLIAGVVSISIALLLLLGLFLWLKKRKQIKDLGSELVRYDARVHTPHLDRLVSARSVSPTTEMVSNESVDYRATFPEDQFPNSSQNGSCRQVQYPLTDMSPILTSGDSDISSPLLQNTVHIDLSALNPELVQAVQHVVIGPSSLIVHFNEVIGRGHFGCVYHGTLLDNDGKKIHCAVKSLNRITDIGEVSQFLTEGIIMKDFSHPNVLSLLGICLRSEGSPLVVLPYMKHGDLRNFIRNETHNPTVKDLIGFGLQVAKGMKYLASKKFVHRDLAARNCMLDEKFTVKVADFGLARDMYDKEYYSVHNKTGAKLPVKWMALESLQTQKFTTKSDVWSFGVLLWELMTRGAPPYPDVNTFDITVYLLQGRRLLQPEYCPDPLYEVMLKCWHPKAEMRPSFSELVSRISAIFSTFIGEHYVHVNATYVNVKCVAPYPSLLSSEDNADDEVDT

B1: 09A12 (antibody, IgG4, V domains shown)
VH: QVQLVQSGAEVKKPGASVKVSCKASGYTFTSYSMHWVRQAPGQGLEWMGWINPNGGLTNYAQKFRGRVTMTRDTSTSTVYMELSSLRSEDTAVYYCAREEITTEFDYWGQGTLVTVSS
VL: EIVLTQSPGTLSLSPGERATLSCRASQSVSSYAQSYLHWYQQKPGQAPRLLIYRASTRETGIPDRFSGSGSGTDFTLTISRLEPEDFAVYYCQQSKESPLTFGGGTKVEIK
In experiment [1], B1 yielded an EC50 of 0.28 nM and a maximum MFI, fold over Isotype IgG4 background above 10 fold. In experiment [2], the EC50 came to 2.33 nM and the maximum MFI, fold over Isotype IgG4 background was above 10 fold. Also, in experiment [3], the Kd was found to be 2 nM, the dissociation rate constant (koff) stood at 0.00015 s⁻¹ and the kon came out at 74000 M⁻¹ s⁻¹. In experiment [4], this molecule returned a Kd of 1.5 nM, a dissociation rate constant (koff) of 0.00023 s⁻¹ and a kon of 160000 M⁻¹ s⁻¹.

B2: 07A01 (antibody, IgG4, V domains shown)
VH: B1 VH with T28I, S33T, T58A, N59S, R65Q, E99S, F105Q
VL: B1 VL with S30D, Q34N, A55G, T60S
Regarding B2, in experiment [1], the EC50 worked out at 1.74 nM and the maximum MFI, fold over Isotype IgG4 background was above 10 fold. In experiment [2], this molecule yielded an EC50 of 7.44 nM and a maximum MFI, fold over Isotype IgG4 background above 10 fold. The molecule further registered a cyno C-MET affinity, fold of the human C-MET affinity in experiment [5] below 2 fold. In experiment [3], this molecule came in with a Kd of 0.24 nM, a koff of 1.3e-05 s⁻¹ and a kon of 56000 M⁻¹ s⁻¹. In experiment [4], this molecule had a Kd of 0.17 nM, a koff of 1.6e-05 s⁻¹ and a kon of 94000 M⁻¹ s⁻¹.
